The values that follow come from patent US20180273595A1 (REGENTS OF THE UNIVERSITY OF MICHIGAN, published 2018).

Where no end group is shown, it is not given here. The star is where a group is joined. Biotin = O=C1N[C@H]2[C@H](CS[C@H]2CCCCC(=O)*)N1

Test [1] concerns the target T1, TMPRSS2:ERG gene fusion product, endogenous in VCaP cells (UniProt P11308 33-479, limits assumed).
T1 construct: In cell lysates, in cells or in xenograft tumors; also called endogenous ERG; VCaP ERG
T1 sequence (looked up): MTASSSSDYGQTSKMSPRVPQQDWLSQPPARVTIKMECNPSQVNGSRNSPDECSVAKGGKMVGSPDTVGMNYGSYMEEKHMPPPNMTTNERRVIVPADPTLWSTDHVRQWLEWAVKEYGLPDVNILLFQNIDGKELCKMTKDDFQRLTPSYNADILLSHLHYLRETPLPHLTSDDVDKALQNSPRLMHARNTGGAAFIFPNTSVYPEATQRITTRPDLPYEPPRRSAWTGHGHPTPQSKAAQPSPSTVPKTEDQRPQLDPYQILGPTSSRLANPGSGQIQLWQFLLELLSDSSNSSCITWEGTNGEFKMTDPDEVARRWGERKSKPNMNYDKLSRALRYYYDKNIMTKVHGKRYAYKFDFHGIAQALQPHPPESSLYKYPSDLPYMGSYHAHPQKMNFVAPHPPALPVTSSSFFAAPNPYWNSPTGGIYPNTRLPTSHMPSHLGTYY
Put plainly: pull-down of VCaP lysate with biotinylated peptide, ERG immunoblot.
Experimental: Approximately 1 mg of soluble VCaP cell lysate prepared in RIPA buffer (Invitrogen) was incubated with varying amounts of biotinylated peptides for 2 hours at 4° C. HaloLink agarose beads (20 μl) were added to the peptide-lysate mixture and incubated for an additional 4 hours. Beads were then pelleted by centrifugation, washed three times in PBS-T and loaded into an SDSPAGE gel followed by Western blot analysis. Total VCaP cell lysate was loaded for positive control.

The target in test [2] is T2, wild-type ERG endogenous in HUVEC cells (human, UniProt P11308 1-479, limits assumed).
T2 construct: also called HUVEC ERG
T2 sequence (looked up): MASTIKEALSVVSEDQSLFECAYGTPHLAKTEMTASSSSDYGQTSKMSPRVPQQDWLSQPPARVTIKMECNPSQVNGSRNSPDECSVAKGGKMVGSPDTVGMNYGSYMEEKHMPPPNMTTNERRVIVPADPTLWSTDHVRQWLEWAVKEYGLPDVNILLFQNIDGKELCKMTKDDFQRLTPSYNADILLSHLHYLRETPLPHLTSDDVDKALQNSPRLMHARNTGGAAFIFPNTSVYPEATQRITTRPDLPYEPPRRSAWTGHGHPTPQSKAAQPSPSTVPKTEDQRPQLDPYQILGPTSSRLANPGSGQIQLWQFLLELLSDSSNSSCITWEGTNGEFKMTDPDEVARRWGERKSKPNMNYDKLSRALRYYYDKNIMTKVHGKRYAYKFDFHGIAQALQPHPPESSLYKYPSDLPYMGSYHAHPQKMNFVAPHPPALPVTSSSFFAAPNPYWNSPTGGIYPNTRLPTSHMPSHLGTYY
The experiment in a line: pull-down of whole cell lysate with biotinylated peptide, WB: αERG.

The target of test [3] is T3, wild-type ERG endogenous in MS1 mouse endothelial cells (mouse, UniProt P81270 1-486, limits assumed).
T3 construct: also called mERG; MS1 ERG
T3 sequence (looked up): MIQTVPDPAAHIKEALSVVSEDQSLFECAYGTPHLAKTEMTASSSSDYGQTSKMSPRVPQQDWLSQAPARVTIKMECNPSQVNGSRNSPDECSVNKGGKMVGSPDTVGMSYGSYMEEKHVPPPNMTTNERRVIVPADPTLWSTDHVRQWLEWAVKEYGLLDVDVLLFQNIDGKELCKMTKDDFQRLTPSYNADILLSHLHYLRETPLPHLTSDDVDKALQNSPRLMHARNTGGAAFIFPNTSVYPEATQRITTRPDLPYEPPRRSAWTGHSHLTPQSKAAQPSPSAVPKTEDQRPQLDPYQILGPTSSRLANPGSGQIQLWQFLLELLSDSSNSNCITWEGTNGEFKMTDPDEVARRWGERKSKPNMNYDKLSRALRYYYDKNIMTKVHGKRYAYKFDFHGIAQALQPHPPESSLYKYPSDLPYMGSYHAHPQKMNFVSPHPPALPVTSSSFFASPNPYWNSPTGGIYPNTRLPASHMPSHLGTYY
Described as above.

In test [4] the target is T4, endogenous ETV1 protein of LNCaP cells (UniProt P50549 1-477, limits assumed).
T4 sequence (looked up): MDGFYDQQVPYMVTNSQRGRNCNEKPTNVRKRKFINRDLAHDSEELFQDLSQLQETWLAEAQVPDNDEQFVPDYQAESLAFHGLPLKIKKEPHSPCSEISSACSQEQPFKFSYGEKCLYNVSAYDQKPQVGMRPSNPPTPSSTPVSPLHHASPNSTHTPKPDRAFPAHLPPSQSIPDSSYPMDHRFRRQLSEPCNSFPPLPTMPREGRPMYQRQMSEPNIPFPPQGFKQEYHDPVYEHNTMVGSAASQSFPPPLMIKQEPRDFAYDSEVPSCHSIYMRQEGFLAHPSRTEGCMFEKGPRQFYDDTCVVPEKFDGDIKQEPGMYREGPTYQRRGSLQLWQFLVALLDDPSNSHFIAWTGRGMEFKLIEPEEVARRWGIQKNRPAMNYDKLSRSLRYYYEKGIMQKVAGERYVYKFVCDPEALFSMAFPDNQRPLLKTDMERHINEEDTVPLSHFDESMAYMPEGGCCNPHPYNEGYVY
The experiment in a line: pull-down of cell lysate with biotinylated peptide, immunoblot αETV1.

The target of test [5] is T5, recombinant His-tagged full-length ERG (UniProt P11308 1-479, biotinylated with NHS-PEG4 biotin for the OctetRED assays).
T5 construct: mature; Baculovirus expression in SF9 cells, Ni-NTA purified; also called wild-type ERG; wtERG; not shown: His tag
T5 sequence (looked up): T2 sequence (looked up)
The experiment in a line: pull-down of purified recombinant protein with biotinylated peptide, immunoblot. (In general: A western blot detects proteins with antibodies after separation by electrophoresis.)

The target of test [6] is T5, recombinant His-tagged full-length ERG. Put plainly: OctetRED biolayer interferometry, biotinylated ERG on streptavidin sensors, peptide in solution. (Biolayer interferometry detects binding as a change in optical thickness at a sensor tip.)
Experimental: (§1) The interaction coefficients between ERG and synthetic peptides or peptidomimetics were determined by biolayer interferometry technology using the Octet Red system (ForteBio). Purified ERG and GUS proteins were biotinylated by EZLink NHS-PEG4 Biotinylation Kit (Thermo Scientific) following the manufacturer's protocol and any unincorporated biotin was removed from the reactions with Zeba 2 ml desalt columns (Thermo). Biotinylated proteins (500 μg/ml) were then incubated with super streptavidin biosensors in binding buffer (20 mM HEPES pH 7.4, 150 mM NaCl), blocked with 10 μg/ml biocytin and washed three times in binding buffer. Peptides were serially diluted in binding buffer, mixed with the protein-coupled biosensors and peptidomimetic:protein association/dissociation was monitored for 10 min at 25° C. Nonspecific binding from the signal obtained from peptidomimetic:GUS interactions was subtracted from that of peptidomimetic:ERG interactions and baseline signal drift was controlled by monitoring immobilized ERG without peptide. Octet Red analysis software was used to analyze the data.
In test [7] the target is T6, Halo-tagged full-length ERG (UniProt P11308 1-479).
T6 construct: mature; In vitro transcription/translation in wheat germ lysate; also called Halo-ERG fusion protein; not shown: HaloTag (about 35 kDa), N-terminal
T6 sequence (looked up): T2 sequence (looked up)
The experiment in a line: competitive pull-down: Halo-ERG with purified DNA-PKcs or GST-AR and peptide, HaloLink beads, immunoblot.

The target of test [8] is T5, recombinant His-tagged full-length ERG. The experiment in a line: OctetRED biolayer interferometry, steady-state analysis.
Experimental: as §1
Test [9] shares this target. The experiment in a line: binding assay of capped EIP1 variants (FIG. 13); capped EIP1, L5E.
Test [10] shares this target. Put plainly: Kd table of synthetic peptides on ERG; assay not given.
Test [11] shares this target. Put plainly: binding assay of capped EIP1 variants (FIG. 13); capped EIP1, Y4K.
Test [12] has the same target. The experiment in a line: binding assay of capped EIP1 variants (FIG. 13); capped EIP1, Y4E.
For test [13], the target named is T7, Halo-tagged full-length ETS1 (UniProt P14921 1-441).
T7 construct: mature; not shown: Halo-tag at the N-terminus
T7 sequence (looked up): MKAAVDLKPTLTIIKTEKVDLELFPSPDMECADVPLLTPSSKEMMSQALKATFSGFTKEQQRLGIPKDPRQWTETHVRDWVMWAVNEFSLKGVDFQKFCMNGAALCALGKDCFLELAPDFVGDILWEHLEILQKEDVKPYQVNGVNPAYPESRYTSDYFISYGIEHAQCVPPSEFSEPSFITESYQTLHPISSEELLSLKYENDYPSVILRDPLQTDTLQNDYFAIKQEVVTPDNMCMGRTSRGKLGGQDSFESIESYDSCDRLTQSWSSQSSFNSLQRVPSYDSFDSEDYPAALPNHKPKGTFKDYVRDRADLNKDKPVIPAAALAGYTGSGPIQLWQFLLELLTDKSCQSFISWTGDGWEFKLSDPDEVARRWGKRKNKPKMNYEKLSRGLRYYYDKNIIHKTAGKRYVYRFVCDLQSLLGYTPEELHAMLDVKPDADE
Put plainly: pull-down of in vitro translated Halo-tagged protein with biotinylated peptide, anti-Halo immunoblot [cont'd].

In test [14] the target is T8, Halo-tagged full-length ETV1 (UniProt P50549 1-477).
T8 construct: mature; not shown: Halo-tag at the N-terminus
T8 sequence (looked up): T4 sequence (looked up)
The description is as above.

Test [15] deals with T9, Halo-tagged full-length ETV6 (UniProt P41212 1-452).
T9 construct: mature; not shown: Halo-tag at the N-terminus
T9 sequence (looked up): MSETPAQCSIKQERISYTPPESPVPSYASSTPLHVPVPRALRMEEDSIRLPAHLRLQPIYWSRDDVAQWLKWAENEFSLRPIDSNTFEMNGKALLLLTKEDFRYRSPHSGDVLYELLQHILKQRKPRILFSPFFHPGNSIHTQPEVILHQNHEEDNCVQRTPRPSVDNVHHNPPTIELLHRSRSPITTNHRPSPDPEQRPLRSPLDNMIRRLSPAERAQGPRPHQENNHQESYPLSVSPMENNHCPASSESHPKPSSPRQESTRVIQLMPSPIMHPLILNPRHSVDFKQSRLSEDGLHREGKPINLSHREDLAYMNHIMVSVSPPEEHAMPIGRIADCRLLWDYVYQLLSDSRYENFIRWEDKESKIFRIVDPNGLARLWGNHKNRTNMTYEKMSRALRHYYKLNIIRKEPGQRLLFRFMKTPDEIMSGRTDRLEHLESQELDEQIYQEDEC
The test is described as above.

For test [16], the target named is T10, Halo-tagged full-length Fli1 (UniProt Q01543 1-452).
T10 construct: mature; not shown: Halo-tag at the N-terminus
T10 sequence (looked up): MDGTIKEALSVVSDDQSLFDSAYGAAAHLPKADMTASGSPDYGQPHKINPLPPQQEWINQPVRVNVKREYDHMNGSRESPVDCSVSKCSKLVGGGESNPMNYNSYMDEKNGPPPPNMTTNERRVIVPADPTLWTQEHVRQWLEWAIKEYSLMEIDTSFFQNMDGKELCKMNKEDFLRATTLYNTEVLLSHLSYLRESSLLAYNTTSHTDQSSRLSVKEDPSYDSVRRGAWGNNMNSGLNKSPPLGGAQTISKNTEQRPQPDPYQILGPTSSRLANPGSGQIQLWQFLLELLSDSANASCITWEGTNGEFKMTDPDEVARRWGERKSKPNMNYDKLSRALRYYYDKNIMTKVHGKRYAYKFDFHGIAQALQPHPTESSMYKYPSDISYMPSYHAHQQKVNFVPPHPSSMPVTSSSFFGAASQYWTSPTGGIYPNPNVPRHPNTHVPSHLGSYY
The test is described as above.

Test [17] has as its target T6, Halo-tagged full-length ERG. Described as above.

Turning to LPPALFT (also: biotin, position not given here, also called biotin-muEIP1) [biotinylated muEIP1 peptide], the binding result in test [1] was “no binding (tested: 20 µM)”; in test [2], “no binding”; in [3] it was “no binding”; in [4] it was “no binding (tested: 50 µM)”; in test [5] it was “no binding”.
As for LPPALFT (Alanine substitution control) [muEIP1 synthetic peptide LPPALFT], the binding result in test [6] was “no binding (tested: 20 µM)”; in [7], “no binding (tested: 50 µM)”.
Regarding LPPTFLY [scrambled peptide LPPTFLY], in test [8], the binding result is recorded as “no binding (tested: 20 µM)”.
For the molecule Ac-LPPYEFT-NH2 [capped EIP1 with L at position five mutated to E], the Kd worked out at 5.1 µM in [9] and 5.09 µM in test [10].
For the molecule Ac-LPPKLFT-NH2 [capped EIP1 with Y at position four mutated to K], the dissociation constant (Kd) in test [11] was found to be 4.3 µM; in [10], 4.27 µM.
Take Ac-LPPELFT-NH2 [capped EIP1 with Y at position four mutated to E]: the dissociation constant (Kd) in test [12] and in test [10] was 3.6 µM each time.

B1: Biotin-HSKINPT (peptide)
peptide: Biotin-HSKINPT
notes: Control of the pull-down with Biotin-LSFGSLP; also called control peptide Biotin-HSKINPT
Take B1: the binding result in test [13], in test [14], in test [15], in [16] and in test [17] was “no binding” in each case.

What is called Kd is a measure of binding affinity in units of concentration.
